The target in experiment [1] is Human Aβ(1–42)-HiLyte™-Fluor555 (human) (UniProt P05067). Put plainly: other fluorescence titration; kinetics of the fluorescence increase of 10 nM Aβ(1–42) HiLyte Fluor555 after addition of 10 nM CaM (1:1 molar ratio); 50 mM Hepes, 100 mM KCl, 50 µM CaCl2, pH 7.05; 24–25 °C.
Experiment [2] shares this target. The experiment can be described thus: other fluorescence titration; kinetics of the fluorescence increase of 10 nM Aβ(1–42) HiLyte Fluor555 after addition of 5 nM CaM (series 2.5, 5, 10 nM for the maximum change); 50 mM Hepes, 100 mM KCl, 50 µM CaCl2, pH 7.05; 24–25 °C; excitation 520 nm, emission 567 nm.
Experiment [3] shares this target. The experiment can be described thus: other fluorescence titration; reversion of the fluorescence increase: 100 nM non-labelled Aβ(1–42) added after complex formation of 10 nM Aβ(1–42) HiLyte Fluor555 with 5 nM CaM; same buffer, 24–25 °C.

“calmodulin (CaM) (from UniProt P62157 1-149) (natural protein; other documents disagree on this pair)”: in experiment [1], the half-time of complex formation (10 nM CaM) is 38 s and the rate constant of the kinetic process of complex formation (10 nM CaM) was found to be 0.018 s⁻¹. The substance also yielded a stoichiometry N (Aβ(1–42) per CaM) in experiment [2] of 2. The time needed for the decay to half the increase of fluorescence in experiment [3] is 900 s.

(Values after article PMC8880779.)
